B1: Zn-rhAFP: complex of rhAFP with Zn ions, prepared with 4-fold molar excess of ZnCl2 followed by dialysis (protein, UniProt P02771 19-609, looked up)
Alpha-fetoprotein: RTLHRNEYGIASILDSYQCTAEISLADLATIFFAQFVQEATYKEVSKMVKDALTAIEKPTGDEQSSGCLENQLPAFLEELCHEKEILEKYGHSDCCSQSEEGRHNCFLAHKKPTPASIPLFQVPEPVTSCEAYEEDRETFMNKFIYEIARRHPFLYAPTILLWAARYDKIIPSCCKAENAVECFQTKAATVTKELRESSLLNQHACAVMKNFGTRTFQAITVTKLSQKFTKVNFTEIQKLVLDVAHVHEHCCRGDVLDCLQDGEKIMSYICSQQDTLSNKITECCKLTTLERGQCIIHAENDEKPEGLSPNLNRFLGDRDFNQFSSGEKNIFLASFVHEYSRRHPQLAVSVILRVAKGYQELLEKCFQTENPLECQDKGEEELQKYIQESQALAKRSCGLFQKLGEYYLQNAFLVAYTKKAPQLTSSELMAITRKMAATAATCCQLSEDKLLACGEGAADIIIGHLCIRHEMTPVNPGVGQCCTSSYANRRPCFSSLVVDETYVPPAFSDDKFIFHKDLCQAQGVALQTMKQEFLINLVKQKPQITEEQLEAVIADFSGLLEKCCQGQEQEVCFAEEGQKLISKTRAALGV
modifications: zinc ion complex
B2: rhAFP: glycosylated wild-type recombinant human alpha-fetoprotein secreted by yeast Saccharomyces cerevisiae (protein, UniProt P02771 19-609, looked up)
Alpha-fetoprotein: B1 Alpha-fetoprotein
modifications: expressed in yeast
notes: glycosylated wild-type recombinant human alpha-fetoprotein secreted by yeast Saccharomyces cerevisiae
B3: eAFP: fetal serum human AFP isolated from human cord serum (protein, UniProt P02771 19-609, looked up)
Alpha-fetoprotein: B1 Alpha-fetoprotein

Test system: normal CBA mice splenocytes
Test: Unspecific toxicity against normal splenocytes, trypan blue staining
Settings: 48 h, standalone protein
Protocol: Zn-rhAFP was prepared in a molecular ratio Zn:rhAFP=4:1. Viable cells were visualized by trypan blue staining. The data are expressed as percentage of viable cells in experimental cell cultures relative to untreated control. Mean of three independent experiments is shown.
Viable cells were visualized by trypan blue staining.

| Molecule | dose-dependent stimulation of growth of the normal splenocytes |
| --- | --- |
| B1 | 40 % of control |
| B2 | 40 % of control |

Test system: mammary carcinoma cell line MCF-7
Test: MTS cell viability assay, mammary carcinoma MCF-7 cells
Type: cell-based, human
Settings: Example 3, MCF-7, 48 h, protein without drug, read-out: IC50, tumor suppressive effect of AFP species standalone
Protocol: Effect of binding of Zn ions to rhAFP and sugar-free rhAFPo species was tested by measuring of their dose-dependent tumor-suppressive effect for mammary carcinoma cell line MCF-7 in vitro, as it was earlier described for natural embryonic eAFP (Dudich et al., Eur. J. Biochem. 1999; 266: 750-761). MCF-7 cells were incubated with various doses of rhAFP (rhAFPo), Zn-rhAFP (Zn-rhAFPo) or with natural embryonic eAFP for 48 h, and thereafter their viability was assessed by the colorimetric MTS assay (FIG. 1A).
Cell viability was assessed by the Promega CellTiter 96 AQueous Non-Radioactive Cell Proliferation MTS assay (Promega, USA) according to manufacturer's instructions. Cells were incubated with various AFP samples for 48 h as described above, followed by incubation with MTS-test reagents and measuring of the light adsorption of the formasan, appeared in the lysed cell supernatants at 492 nm by using VICTOR-1420 multilabel counter (Wallac, Finland). Intact cell cultures incubated without additions were taken as a control. By such a way the quantity of viable cells capable to internalize MTS dye was determined. Results were expressed as the mean optical density (OD)±the standard error of the mean triplicate cultures. The extent of cell viability was calculated as an average OD in experimental wells after addition of testing compounds in relation to untreated control wells, that was taken as 100%
To evaluate the efficacy of preparations rhAFP/Ptx and Zn-rhAFP/Ptx we compared the cytotoxic effect of Ptx alone or that in combination with rhAFP or Zn-rhAFP for taxol-resistant human hepatoma HepG2 cells, human breast carcinoma cells MCF-7, and rat glioma C6 cell lines in vitro. RhAFP or Zn-rhAFP were incubated with various doses of Ptx at 37° C. for 1 h to allow complex formation with molecular ratios rhAFP:Ptx 1:1; 1:3 or 1:5 and thereafter the mixtures were introduced into the cell culture for 48 hrs. Cytotoxicity was measured by MTS assay.
Various doses of rhAFP/Ptx complexes were tested for their effectiveness for inhibition of human mammary carcinoma MCF-7, human hepatoma HepG2, and rat glioma C6 tumor cell growth in vitro. First, we optimized drug concentration and rhAFP amount to the extent that it would not generate an extensive cytotoxic effect alone. Then, the cells were seeded in 96-well plates at a density of 3×10^3/well in 100 μl of medium for 24 hrs to allow adherence. The next day, rhAFP or Zn-rhAFP combined with Ptx at the molecular ratios of 1:1; 1:3 or 1:5 were added into the each well. After 48 h of incubation MTS assays were performed to determine survival rate of the cells. All the experiments were repeated at least three times. The results were expressed as mean±standard error (SE).
The coefficient of drug interaction (CDI) was calculated to analyze the effects of rhAFP and Ptx combinations. CDI was calculated by the equation: CDI=SRAFP/drug[…]/SRAFP×SRdrug, where SRAFP/drug is the average survival rate of combination group, and SRAFP or SRdrug are the average survival rates of the single agent groups. According to our evaluation, CDI values <1, =1 or >1 indicate that the combinations are synergistic, additive or antagonistic respectively.
The values of Zn-rhAFP/Ptx or rhAFP/Ptx complex concentration, which inhibited the cell viability by 50% (IC50) when compared to untreated control, were calculated according to the Hill's equation (sigmoid model of concentration-response curve) from the curves of dependence of the relative percentage of viable cells from AFP concentration expressed as mean values from three independent experiments±SD.
In order to confirm the hypothesis that the combination of Zn-rhAFP and various low water-soluble chemotherapeutic agents would reveal increased anti-tumor efficacy, different cytotoxic compounds were tested in combination with Zn-rhAFP for their cell-killing effect in MCF-7 cells in vitro. […]

| Molecule | IC50 |
| --- | --- |
| B1 | 2.5 µM |
| B3 | 3 µM |
| B2 | 3.5 µM |

Same assay, conditions: Example 6, MCF-7, 48 h, protein without Ptx, read-out: cytostatic activity (IC50) standalone against MCF-7 cells

| Molecule | IC50 |
| --- | --- |
| B1 | 5.2 µM |
| B2 | 6.1 µM |

Same assay, conditions: MCF7 + Zn-rhAFP 1.4 μM (Zn:rhAFP 4:1) + drug, 48 h

| Molecule | Coefficient for drug interaction (CDI) |
| --- | --- |
| N.N.[Cl][Pt][Cl] [Cisplatin, cisplatin] | 0.93 |
| COc1cc(/C=C/C(=O)CC(=O)/C=C/c2ccc(O)c(OC)c2)ccc1O [Curcumin, curcumin] | 0.88 |
| COc1cccc2c1C(=O)c1c(O)c3c(c(O)c1C2=O)C[C@@](O)(C(=O)CO)C[C@@H]3O[C@H]1C[C@H](N)[C@H](O)[C@H](C)O1 [Doxorubicin, doxorubicin] | 0.66 |
| COc1cc([C@@H]2c3cc4c(cc3[C@@H](O[C@@H]3O[C@@H]5CO[C@@H](C)O[C@H]5[C@H](O)[C@H]3O)[C@H]3COC(=O)[C@H]23)OCO4)cc(OC)c1O [Etoposide, etoposide] | 0.86 |
| O=c1c(-c2ccc(O)cc2)coc2cc(O)cc(O)c12 [Genistein, genistein] | 0.82 |
| CC(C)=CCC/C(C)=C/C=C/C(C)=C/C=C/C(C)=C/C=C/C=C(C)/C=C/C=C(C)/C=C/C=C(\C)CCC=C(C)C [Lycopene, lycopene] | 0.71 |
| Oc1ccc(C=Cc2cc(O)cc(O)c2)cc1 [Resveratrol, resveratrol] | 0.72 |

Test system: not listed separately
Test: Adiabatic scanning microcalorimetry of heat denaturation
Type: physicochemical
Settings: protein 2.0 mg/ml in PBS pH 7.4

| Molecule | ΔT1/2 (half width of the denaturation transition peak) |
| --- | --- |
| B1 | 5.9 °C |
| B3 | 5.8 °C |
| B2 | 7.0 °C |

Same assay, conditions: protein 2.0 mg/ml in PBS pH 7.4; Zn/rhAFP 4/1, Ptx/rhAFP 1/1, Cur/rhAFP 1:1; error about ±6%

| Molecule | ΔH (denaturation enthalpy) |
| --- | --- |
| B1 | 171 kcal/mol |
| B3 | 189 kcal/mol |
| B2 | 166 kcal/mol |

Same assay, conditions: protein 2.0 mg/ml in PBS pH 7.4; error ±0.5° C.

| Molecule | Tmax (denaturation transition temperature) |
| --- | --- |
| B1 | 74.3 °C |
| B3 | 80.2 °C |
| B2 | 71.9 °C |

Test system: NF-κB p65
Test: Immunofluorescence of activated NF-κB p65 nuclear translocation in MCF-7 cells
Type: cell-based, human
Settings: MCF-7, 2 h treatment
Protocol: The cells were incubated with paclitaxel (10 μM) with addition of Zn-rhAFP (3.0 μM) and/or curcumin (3.0 μM) for 2 h and then assessed for localization of p65 by immunocytochemistry. Activated […] (p65) was detected by treatment of the cells with phospho […] p65 rabbit polyclonal antibody (Cell signaling technologies, USA) followed by secondary goat anti-rabbit Ab-Alexa594 red (Molecular Probes, USA). Cells were visualized at magnification ×400 by fluorescent microscope Axioplan; Zeiss (Germany) equipped with corresponding color filter kits.
The relative amount of p65 in the cytosol and nucleus of the cells was assessed by ImageJ software and was taken as 100% in the control (cytosol+nucleus). Total amount of activated p65 in control untreated cells was taken as 100%. The experimental data are represented as percentage of control±SD from three independent calculations in various observation fields.
MCF-7 cells were seeded on the microscopic plates Lab-Tek™ Chamber Slides (Thermo Fisher Scientific-Nunc, Germany) and cultivated at 37° C. at 5% CO2 atmosphere for 48 h to allow cell adaptation to reach 80% confluence. To test effects of chemotherapeutic preparations on the activation and translocation of NF-κB, cells were treated for 2 h with Ptx (10 nM), curcumin (30 μM); Zn-rhAFP (1.4 μM), or their combination Zn-rhAFP/Ptx/Cur, after which they were fixed with 100% ice-cold acetone. Control cells were incubated without additions and their NF-κB content was taken as 100%. Activated NF-κB was detected by treatment of the cells with phospho NF-κB p65 rabbit polyclonal antibody (Cell signaling technologies, USA) followed by the secondary goat anti-rabbit antibodies Ab-Alexa594 (Molecular Probes, USA). Nuclei were visualized by staining with DAPI (Molecular probes, USA). Cells were visualized at magnification ×400 by fluorescent microscope Axioplan (Zeiss, Germany) equipped with corresponding color filter kits. Distribution throughout the cell of the activated p65 was assessed by the ImageJ software and was taken as 100% in the control samples (cytosol+nucleus).

| Molecule | effect on activated p65 (RelA) in the cell nucleus |
| --- | --- |
| COc1cc(/C=C/C(=O)CC(=O)/C=C/c2ccc(O)c(OC)c2)ccc1O [Curcumin, curcumin] | significant decrease of activated RelA in the cell nucleus |
| B1 | significant decrease of activated RelA in the cell nucleus |
